# Target: T1, HIS-tagged human CD73 (huCD73-HIS) (human, UniProt P21589 27-547)
# T1 sequence: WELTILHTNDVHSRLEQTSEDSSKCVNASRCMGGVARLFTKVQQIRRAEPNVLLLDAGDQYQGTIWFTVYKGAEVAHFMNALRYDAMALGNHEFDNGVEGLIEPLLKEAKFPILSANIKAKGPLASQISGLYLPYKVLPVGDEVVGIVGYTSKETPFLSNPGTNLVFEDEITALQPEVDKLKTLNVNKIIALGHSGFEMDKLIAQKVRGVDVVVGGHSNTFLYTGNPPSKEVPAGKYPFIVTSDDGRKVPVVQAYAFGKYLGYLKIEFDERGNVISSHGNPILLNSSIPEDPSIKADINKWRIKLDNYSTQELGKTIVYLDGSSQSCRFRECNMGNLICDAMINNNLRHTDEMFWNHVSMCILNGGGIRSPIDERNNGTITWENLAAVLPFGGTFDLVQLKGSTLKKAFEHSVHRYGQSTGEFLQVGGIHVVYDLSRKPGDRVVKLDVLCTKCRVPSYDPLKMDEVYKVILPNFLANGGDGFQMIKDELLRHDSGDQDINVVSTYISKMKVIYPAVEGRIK
# Experiment: cell-based or functional assay
row,Binder,"IC50 (nM), huCD73 enzymatic assay in solution"
1,"60A9-H1L1 (antibody, V domains shown) VH: EVQLVESGGGLVQPGQSLKLSCKASGYAFSSYWMNWVRQAPGKGLEWMGQIYPGDGDTYYNPSVKGRFTISADTSKNTAYLQLNNLRAEDTAVYYCAREAIYYGNYVFTYWGQGTLVTVSS VL: DIQMTQSPSLLSASLGDRVTITCKSSQSLLNSSNQKNYLAWYQQKPGQSPKLLIYFASTRDSGVPDRFSGSGSGTDFTLTISSLEPEDFATYYCQQHYSTPLTFGGGTKLEIK",3.34 nM
2,"60A9-H4L1 (antibody, V domains shown) VH: EVQLVESGGGLVQPGQSLKLSCKASGYAFSSYWMNWVRQAPGKGLEWIGQIYPGDGDTYYSGSVKGRATLSADKSKNTAYLQLNNLRAEDTAVYYCAREAIYYGNYVFTYWGQGTLVTVSS VL: DIQMTQSPSLLSASLGDRVTITCKSSQSLLNSSNQKNYLAWYQQKPGQSPKLLIYFASTRDSGVPDRFSGSGSGTDFTLTISSLEPEDFATYYCQQHYSTPLTFGGGTKLEIK",3.1 nM
3,"60A9-H4L3 (antibody, V domains shown) VH: EVQLVESGGGLVQPGQSLKLSCKASGYAFSSYWMNWVRQAPGKGLEWIGQIYPGDGDTYYSGSVKGRATLSADKSKNTAYLQLNNLRAEDTAVYYCAREAIYYGNYVFTYWGQGTLVTVSS VL: DIQMTQSPSLLSASLGDRVTITCKSSQSLLNSSNQKNYLAWYQQKPGQSPKLLVYFASTRDSGVPDRFSGSGSGTDFTLTISSLEPEDFATYYCQQHYSTPLTFGGGTKLEIK",2.74 nM
4,"60A9-H2L1 (antibody, V domains shown) VH: EVQLVESGGGLVQPGGSLRLSCKASGYAFSSYWMNWVRQAPGKGLEWVGQIYPGDGDTYYNPSVKGRFTISADTSKNTLYLQMNSLRAEDTAVYYCAREAIYYGNYVFTYWGQGTLVTVSS VL: DIQMTQSPSLLSASLGDRVTITCKSSQSLLNSSNQKNYLAWYQQKPGQSPKLLIYFASTRDSGVPDRFSGSGSGTDFTLTISSLEPEDFATYYCQQHYSTPLTFGGGTKLEIK",4.13 nM
5,"60A9-H1L2 (antibody, V domains shown) VH: EVQLVESGGGLVQPGQSLKLSCKASGYAFSSYWMNWVRQAPGKGLEWMGQIYPGDGDTYYNPSVKGRFTISADTSKNTAYLQLNNLRAEDTAVYYCAREAIYYGNYVFTYWGQGTLVTVSS VL: DIVMTQSPSSLSASLGDRVTITCKSSQSLLNSSNQKNYLAWYQQKPGQSPKLLIYFASTRDSGVPDRFSGSGSGTDFTLTISSLEPEDFATYYCQQHYSTPLTFGGGTKLEIK",6.17 nM
6,"60A9-H2L2 (antibody, V domains shown) VH: EVQLVESGGGLVQPGGSLRLSCKASGYAFSSYWMNWVRQAPGKGLEWVGQIYPGDGDTYYNPSVKGRFTISADTSKNTLYLQMNSLRAEDTAVYYCAREAIYYGNYVFTYWGQGTLVTVSS VL: DIVMTQSPSSLSASLGDRVTITCKSSQSLLNSSNQKNYLAWYQQKPGQSPKLLIYFASTRDSGVPDRFSGSGSGTDFTLTISSLEPEDFATYYCQQHYSTPLTFGGGTKLEIK",11.2 nM
7,"60A9-H3L1 (antibody, V domains shown) VH: EVQLVESGGGLVQPGQSLKLSCKASGYAFSSYWMNWVRQAPGKGLEWIGQIYPGDGDTYYNPSVKGRATLSADKSKNTAYLQLNNLRAEDTAVYYCAREAIYYGNYVFTYWGQGTLVTVSS VL: DIQMTQSPSLLSASLGDRVTITCKSSQSLLNSSNQKNYLAWYQQKPGQSPKLLIYFASTRDSGVPDRFSGSGSGTDFTLTISSLEPEDFATYYCQQHYSTPLTFGGGTKLEIK",2.94 nM
8,"60A9-H4L2 (antibody, V domains shown) VH: EVQLVESGGGLVQPGQSLKLSCKASGYAFSSYWMNWVRQAPGKGLEWIGQIYPGDGDTYYSGSVKGRATLSADKSKNTAYLQLNNLRAEDTAVYYCAREAIYYGNYVFTYWGQGTLVTVSS VL: DIVMTQSPSSLSASLGDRVTITCKSSQSLLNSSNQKNYLAWYQQKPGQSPKLLIYFASTRDSGVPDRFSGSGSGTDFTLTISSLEPEDFATYYCQQHYSTPLTFGGGTKLEIK",4.97 nM
9,"60A9-H1L3 (antibody, V domains shown) VH: EVQLVESGGGLVQPGQSLKLSCKASGYAFSSYWMNWVRQAPGKGLEWMGQIYPGDGDTYYNPSVKGRFTISADTSKNTAYLQLNNLRAEDTAVYYCAREAIYYGNYVFTYWGQGTLVTVSS VL: DIQMTQSPSLLSASLGDRVTITCKSSQSLLNSSNQKNYLAWYQQKPGQSPKLLVYFASTRDSGVPDRFSGSGSGTDFTLTISSLEPEDFATYYCQQHYSTPLTFGGGTKLEIK",4.96 nM
10,"60A9-H3L2 (antibody, V domains shown) VH: EVQLVESGGGLVQPGQSLKLSCKASGYAFSSYWMNWVRQAPGKGLEWIGQIYPGDGDTYYNPSVKGRATLSADKSKNTAYLQLNNLRAEDTAVYYCAREAIYYGNYVFTYWGQGTLVTVSS VL: DIVMTQSPSSLSASLGDRVTITCKSSQSLLNSSNQKNYLAWYQQKPGQSPKLLIYFASTRDSGVPDRFSGSGSGTDFTLTISSLEPEDFATYYCQQHYSTPLTFGGGTKLEIK",4.97 nM
11,"60A9-H2L3 (antibody, V domains shown) VH: EVQLVESGGGLVQPGGSLRLSCKASGYAFSSYWMNWVRQAPGKGLEWVGQIYPGDGDTYYNPSVKGRFTISADTSKNTLYLQMNSLRAEDTAVYYCAREAIYYGNYVFTYWGQGTLVTVSS VL: DIQMTQSPSLLSASLGDRVTITCKSSQSLLNSSNQKNYLAWYQQKPGQSPKLLVYFASTRDSGVPDRFSGSGSGTDFTLTISSLEPEDFATYYCQQHYSTPLTFGGGTKLEIK",4.57 nM

# Target: T2, human CD73 expressed on the surface of cells (human, UniProt P21589 27-549)
# T2 sequence: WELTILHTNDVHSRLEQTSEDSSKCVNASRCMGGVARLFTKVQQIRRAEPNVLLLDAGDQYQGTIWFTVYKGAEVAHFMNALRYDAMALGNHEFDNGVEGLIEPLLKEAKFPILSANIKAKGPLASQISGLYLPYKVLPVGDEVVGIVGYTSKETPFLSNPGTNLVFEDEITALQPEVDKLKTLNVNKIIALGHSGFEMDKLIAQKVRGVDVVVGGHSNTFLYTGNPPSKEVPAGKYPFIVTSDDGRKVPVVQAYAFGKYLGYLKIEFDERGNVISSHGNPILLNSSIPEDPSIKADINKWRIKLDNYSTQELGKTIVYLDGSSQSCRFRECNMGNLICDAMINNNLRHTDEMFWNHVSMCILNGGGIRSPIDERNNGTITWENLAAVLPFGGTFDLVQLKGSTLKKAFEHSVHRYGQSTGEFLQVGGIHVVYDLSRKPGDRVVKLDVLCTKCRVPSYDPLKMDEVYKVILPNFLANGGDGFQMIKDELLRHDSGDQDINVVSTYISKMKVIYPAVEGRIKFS
# Experiment: cell-based or functional assay
row,Binder,"IC50 (nM), cell-based CD73 activity assay (A375 cells)"
1,"60A9-H2L4 (antibody, V domains shown) VH: EVQLVESGGGLVQPGGSLRLSCKASGYAFSSYWMNWVRQAPGKGLEWVGQIYPGDGDTYYNPSVKGRFTISADTSKNTLYLQMNSLRAEDTAVYYCAREAIYYGNYVFTYWGQGTLVTVSS VL: DIVMTQSPSLLSASLGDRVTISCKSSQSLLNSSNQKNYLAWYQQKPGQSPKLLVYFASTRDSGVPDRFSGSGSGTDFTLTISSLEPEDFATYFCQQHYSTPLTFGAGTKLEIK",46 nM
2,"60A9-H3L4 (antibody, V domains shown) VH: EVQLVESGGGLVQPGQSLKLSCKASGYAFSSYWMNWVRQAPGKGLEWIGQIYPGDGDTYYNPSVKGRATLSADKSKNTAYLQLNNLRAEDTAVYYCAREAIYYGNYVFTYWGQGTLVTVSS VL: DIVMTQSPSLLSASLGDRVTISCKSSQSLLNSSNQKNYLAWYQQKPGQSPKLLVYFASTRDSGVPDRFSGSGSGTDFTLTISSLEPEDFATYFCQQHYSTPLTFGAGTKLEIK",134 nM
3,"60A9-H5L3 (antibody, V domains shown) VH: EVQLVESGGGLVQPGQSLKLSCKASGYAFSSYWMNWVKQRPGKGLEWIGQIYPGDGDTYYSGKFKGRATLSADKSKNTAYLQLNNLRAEDTAVYYCAREAIYYGNYVFTYWGQGTLVTVSS VL: DIQMTQSPSLLSASLGDRVTITCKSSQSLLNSSNQKNYLAWYQQKPGQSPKLLVYFASTRDSGVPDRFSGSGSGTDFTLTISSLEPEDFATYYCQQHYSTPLTFGGGTKLEIK",36.4 nM
4,"60A9-H5L2 (antibody, V domains shown) VH: EVQLVESGGGLVQPGQSLKLSCKASGYAFSSYWMNWVKQRPGKGLEWIGQIYPGDGDTYYSGKFKGRATLSADKSKNTAYLQLNNLRAEDTAVYYCAREAIYYGNYVFTYWGQGTLVTVSS VL: DIVMTQSPSSLSASLGDRVTITCKSSQSLLNSSNQKNYLAWYQQKPGQSPKLLIYFASTRDSGVPDRFSGSGSGTDFTLTISSLEPEDFATYYCQQHYSTPLTFGGGTKLEIK",57.3 nM
5,"60A9-H4L4 (antibody, V domains shown) VH: EVQLVESGGGLVQPGQSLKLSCKASGYAFSSYWMNWVRQAPGKGLEWIGQIYPGDGDTYYSGSVKGRATLSADKSKNTAYLQLNNLRAEDTAVYYCAREAIYYGNYVFTYWGQGTLVTVSS VL: DIVMTQSPSLLSASLGDRVTISCKSSQSLLNSSNQKNYLAWYQQKPGQSPKLLVYFASTRDSGVPDRFSGSGSGTDFTLTISSLEPEDFATYFCQQHYSTPLTFGAGTKLEIK",135 nM
6,"60A9-H5L1 (antibody, V domains shown) VH: EVQLVESGGGLVQPGQSLKLSCKASGYAFSSYWMNWVKQRPGKGLEWIGQIYPGDGDTYYSGKFKGRATLSADKSKNTAYLQLNNLRAEDTAVYYCAREAIYYGNYVFTYWGQGTLVTVSS VL: DIQMTQSPSLLSASLGDRVTITCKSSQSLLNSSNQKNYLAWYQQKPGQSPKLLIYFASTRDSGVPDRFSGSGSGTDFTLTISSLEPEDFATYYCQQHYSTPLTFGGGTKLEIK",61 nM

# — patent publication US20200399389A1 (PHANES THERAPEUTICS, published 2020)
